Experimental data reported in publication PMC8126837 (Proceedings of the National Academy of Sciences of the …, 2021).
Numbering of substitutions follows the chain as printed.

B1: WNb 21 (VHH)
VHH: QVQLQESGGGLVQAGGSLTLTCAASERTFGRYVLAWFRQAPGKERELVARISRSTGSTFHADFVLGRFTISRDNAKNTVYLTMNNLKPEDTAVYYCAADKDGGLEYDYWGQGTQVTVSS
notes: source: expressed and purified
B2: WNb 23 (VHH)
VHH: QVQLQESGGGLVQPGGSLRLSCAASGFTFKDYAMAWARQVPGKGLEWVSGIYSDGNTYYADSVKGRFTISRDNAKNTVYLRMNSLKPEDTAVYYCATERHPQGAADFGSWGQGTQVTVSS
notes: as for B1
B3: WNb 2 (VHH)
VHH: QVQLQESGGGLVQPGGSLRLSCAVSGFTLDYYAIGWFRQAPGKEREGVSCISSSGGNTKYADSVKGRFTASRDNAKNTFYLQMNSLKPEDTAVYYCAAIAATYYSGSYYFQCPHDGMDYWGKGTQVTVSS
notes: as for B1
B4: WNb 36 (VHH)
VHH: B3 VHH with S53N, A70T, R72V, K76Q, F79V, Q82L, K87E, S107T, F110Y, D115Y
B5: WNb 7 (VHH)
VHH: QVQLQESGGGLVQPGGSLRLSCAAPGFTFSSYAMGWFRQVPGKGLEWVSGIYSDGSTYYADSVKGRFTISRDNAKNTVYLQMNSLKPEDTAVYYCAKDRLEGSSWPERDFGSWGQGTQVTVSS
B6: WNb 15 (VHH)
VHH: B5 VHH with P25S, A33L, S56G, K97T, L100M

Legend:
[1] = target: T1, SARS-CoV receptor-binding domain (RBD) (SARS-CoV, UniProt P59594); assay: ELISA; details: both partners purified
T1 construct: source: recombinant, purified

[2] = target: SARS-CoV-2 receptor-binding domain (RBD), wild type (SARS-CoV-2, UniProt P0DTC2, DyLight 488 (NHS ester, about 1.9 dye/protein) in the FRET assay only); assay: BLI; details: both partners purified

| Binder | binding result [1] | Kd [2] [nM] |
| --- | --- | --- |
| B1 | binds | – |
| B2 | binds | – |
| B3 | – | < 0.5 |
| B4 | – | < 0.5 |
| B5 | – | < 0.5 |
| B6 | – | < 0.5 |
